Measured values reported in publication PMC4803053.

Molecular target: DSB nucleosomes (position of the break not stated; EMSAs of Figures 5A and 6A) (human) (UniProt P0C0S8)

hexasome formation in EMSA with DSB nucleosomes, against wild-type hMid–AID: 2 fold
Substance: hMidm1m2–AID (Δ746–751/S813A/E829A/R847A/Q849A/L852A/K853A/N854A/D856A) (from UniProt Q9Y5B9 644-988) (domain or fragment)
